The text below walks through data of patent US10704056B2, “Constitutively active ABA receptor mutants” (The Regents of the University of California, priority 2011, dated 2020).

B1: PYL9^CA4C: PYL9 mutant (A91W, Y160I, F161V) (protein)
chain: HHHHHHMMDGVEGGTAMYGGLETVQYVRTHHQHLCRENQCTSALVKHIKAPLHLVWSLVRRFDQPQKYKPFVSRCTVIGDPEIGSLREVNVKSGLPWTTSTERLELLDDEEHILGIKIIGGDHRLKNYSSILTVHPEIIEGRAGTMVIESFVVDVPQGNTKDETCIVVEALIRCNLKSLADVSERLASQDITQ
B2: PYL6: wild-type ABA receptor PYL6 (SEQ ID NO:7) (protein, listed as Arabidopsis thaliana)
chain: MPTSIQFQRSSTAAEAANATVRNYPHHHQKQVQKVSLTRGMADVPEHVELSHTHVVGPSQCFSVVVQDVEAPVSTVWSILSRFEHPQAYKHFVKSCHVVIGDGREVGSVREVRVVSGLPAAFSLERLEIMDDDRHVISFSVVGGDHRLMNYKSVTTVHESEEDSDGKKRTRVVESYVVDVPAGNDKEETCSFADTIVRCNLQSLAKLAENTSKFS
modifications: thale cress PYR/PYL receptor, abscisic acid receptor PYL6, PYR1-like protein 6 (PYL6), ABI1-binding protein 5 (ABIP5), regulatory components of ABA receptor 9 (RCAR9), Bet v I allergen family protein, At2g40330, T7M7.15
B3: PYR1^CA4B: PYR1 quadruple mutant (V83F, M158I, F159V, K170W) (protein)
chain: HHHHHHMPSELTPEERSELKNSIAEFHTYQLDPGSCSSLHAQRIHAPPELVWSIVRRFDKPQTYKHFIKSCSVEQNFEMRVGCTRDVIFISGLPANTSTERLDILDDERRVTGFSIIGGEHRLTNYKSVTTVHRFEKENRIWTVVLESYVVDMPEGNSEDDTRIVADTVVKLNLQWLATVAEAMARNSGDGSGSQVT
B4: PYR1^CAc: PYR1 quadruple mutant (H60P, A89W, M158I, F159V) (protein)
chain: HHHHHHMPSELTPEERSELKNSIAEFHTYQLDPGSCSSLHAQRIHAPPELVWSIVRRFDKPQTYKPFIKSCSVEQNFEMRVGCTRDVIVISGLPWNTSTERLDILDDERRVTGFSIIGGEHRLTNYKSVTTVHRFEKENRIWTVVLESYVVDMPEGNSEDDTRIVADTVVKLNLQKLATVAEAMARNSGDGSGSQVT
B5: K170W: PYR1 receptor mutant with amino acid substitution K170W (protein)
chain: MPSELTPEERSELKNSIAEFHTYQLDPGSCSSLHAQRIHAPPELVWSIVRRFDKPQTYKHFIKSCSVEQNFEMRVGCTRDVIVISGLPANTSTERLDILDDERRVTGFSIIGGEHRLTNYKSVTTVHRFEKENRIWTVVLESYVVDMPEGNSEDDTRMFADTVVKLNLQWLATVAEAMARNSGDGSGSQVT
modifications: synthetic mutated PYR/PYL receptor polypeptide PYR1 K170W
B6: I84Q: PYR1 receptor mutant with amino acid substitution I84Q (protein)
chain: MPSELTPEERSELKNSIAEFHTYQLDPGSCSSLHAQRIHAPPELVWSIVRRFDKPQTYKHFIKSCSVEQNFEMRVGCTRDVIVQSGLPANTSTERLDILDDERRVTGFSIIGGEHRLTNYKSVTTVHRFEKENRIWTVVLESYVVDMPEGNSEDDTRMFADTVVKLNLQKLATVAEAMARNSGDGSGSQVT
modifications: synthetic mutated PYR/PYL receptor polypeptide PYR1 I84Q
B7: H60P: PYR1 (SEQ ID NO:1) receptor mutant with amino acid substitution H60P (protein, listed as Arabidopsis thaliana)
chain: MPSELTPEERSELKNSIAEFHTYQLDPGSCSSLHAQRIHAPPELVWSIVRRFDKPQTYKPFIKSCSVEQNFEMRVGCTRDVIVISGLPANTSTERLDILDDERRVTGFSIIGGEHRLTNYKSVTTVHRFEKENRIWTVVLESYVVDMPEGNSEDDTRMFADTVVKLNLQKLATVAEAMARNSGDGSGSQVT
modifications: thale cress PYR/PYL receptor, Pyrabactin resistance 1, abscisic acid receptor PYR1 (PYR1), ABI1-binding protein 6 (ABIP6), regulatory components of ABA receptor 11 (RCAR11), At4g17870, T6K21.50
B8: V83F: PYR1 receptor mutant with amino acid substitution V83F (protein)
chain: MPSELTPEERSELKNSIAEFHTYQLDPGSCSSLHAQRIHAPPELVWSIVRRFDKPQTYKHFIKSCSVEQNFEMRVGCTRDVIFISGLPANTSTERLDILDDERRVTGFSIIGGEHRLTNYKSVTTVHRFEKENRIWTVVLESYVVDMPEGNSEDDTRMFADTVVKLNLQKLATVAEAMARNSGDGSGSQVT
modifications: synthetic mutated PYR/PYL receptor polypeptide PYR1 V83F
B9: A89W: PYR1 receptor mutant with amino acid substitution A89W (protein)
chain: MPSELTPEERSELKNSIAEFHTYQLDPGSCSSLHAQRIHAPPELVWSIVRRFDKPQTYKHFIKSCSVEQNFEMRVGCTRDVIVISGLPWNTSTERLDILDDERRVTGFSIIGGEHRLTNYKSVTTVHRFEKENRIWTVVLESYVVDMPEGNSEDDTRMFADTVVKLNLQKLATVAEAMARNSGDGSGSQVT
modifications: synthetic mutated PYR/PYL receptor polypeptide PYR1 A89W
B10: PYL10: wild-type ABA receptor PYL10 (SEQ ID NO:11) (protein, listed as Arabidopsis thaliana)
chain: MNGDETKKVESEYIKKHHRHELVESQCSSTLVKHIKAPLHLVWSIVRRFDEPQKYKPFISRCVVQGKKLEVGSVREVDLKSGLPATKSTEVLEILDDNEHILGIRIVGGDHRLKNYSSTISLHSETIDGKTGTLAIESFVVDVPEGNTKEETCFFVEALIQCNLNSLADVTERLQAESMEKKI
modifications: thale cress PYR/PYL receptor, abscisic acid receptor PYL10, PYR1-like protein 10 (PYL10), ABI1-binding protein 8 (ABIP8), regulatory components of ABA receptor 4 (RCAR4), At4g27920, T13J8.30
B11: PYL2^CA4C: PYL2 mutant (H65P, A93W, M1641, F165V) (protein)
chain: HHHHHHMSSSPAVKGLTDEEQKTLEPVIKTYHQFEPDPTTCTSLITQRIHAPASVVWPLIRRFDNPERYKPFVKRCRLISGDGDVGSVREVTVISGLPWSTSTERLEFVDDDHRVLSFRVVGGEHRLKNYKSVTSVNEFLNQDSGKVYTVVLESYTVDIPEGNTEEDTKIVVDTVVKLNLQKLGVAATSAPMHDDE

The assay concerns HAB1. Briefly: In vitro PP2C phosphatase (pNPP) receptor activation assay with HAB1. It is filed as biochemical, Arabidopsis. Conditions: 600 nM GST-HAB1, 0-4800 nM receptor, no ABA. As for the experimental part: Recombinant receptor proteins were produced as follows: Coding sequences were cloned into pET28 yielding 6×HIS (SEQ ID NO:173) fusions proteins and transformed into E. coli expression strain BL21. […]. Cells were stored at −80° C. before purification. After thawing, cells were sonicated on ice five times for 30 sec with 30 sec resting intervals. A cleared lysate was obtained after centrifugation at 12,000×g for 10 min and applied to 1 ml of Ni-NTA column (Qiagen) and washed with 20 column volumes of Buffer A containing 30 mM imidazole. Bound protein was eluted with 10 ml of Buffer A with 250 mM imidazole. The elutate was dialyzed against TBS. The purified recombinant proteins were then used together with recombinant phosphatases in receptor assays. In these assays, receptor activity is indicated by inhibition of phosphatase activity, as inferred from initial reaction velocities for GST-HAB1 mediated hydrolysis of the synthetic phosphatase substrate pNPP. Reactions contained 600 nM GST-HAB1 and either 0, 600, 1200, 2400 or 4800 nM 6×His-PYR1 or variants in a reaction buffer consisting of 33 mM Tris-OAc, pH 7.9, 66 mM KOAc, 0.1% BSA, 25 mM Mn(OAc)2, 50 mM pNPP. To infer the level of receptor activation with respect to fully activated wild type receptor, control reactions were also conducted using saturating levels of (+)-ABA (10 μM), and 600 nM wild type PYR1 and HAB1. Immediately after mixing proteins and substrates, reactions were monitored for hydrolysis of pNPP at A405 at ˜10 second intervals over 20 minutes using a Wallac plate reader. Reaction progressions were plotted, initial velocities calculated and converted to specific activities using a standard curve for 4-nitrophenol made in the same buffer system volumes/plate reader used for enzymatic reaction measurements. The values shown are expressed as %-control phosphatase activity levels as measured in the absence of receptor protein. The average specific activity level of GST-HAB1 utilized in our experiments was 4000 μmol/min/mg, when assayed on the phosphatase substrate pNPP in the absence of PYR1 or other receptors, as described using the methods above.
Full length ABI1 and ABI2 were cloned into a modified pSUMO vector (LifeSensors Inc, USA) vector yielding 6×His-SUMO fusion proteins; GST-HAB1 was expressed and purified as previously described (Park et al., 2009). Mutant receptors were cloned into pET28 yielding 6×His-fusion proteins. […]. The cultures were pre-incubated 2 hours at 30° C. and, for PP2C expression, media was supplemented with 4 mM MnCl2 one hour after inoculation. After pre-incubation, IPTG was added (1 mM) and cells were induced at 15° C. for 16 hours, after which they were collected by centrifugation, resuspended in 5 ml Buffer A (50 mM NaH2PO4, 300 mM NaCl) +10 mM imidazole, pH 8.0 and stored at −80° C. For purification, cells were thawed, sonicated on ice (60 seconds) and a cleared lysate was then applied a 1 ml-bed volume column of Ni-NTA (Qiagen, USA), washed with 20 column volumes of Buffer A+30 mM imidazole and bound protein eluted with 1 ml of Buffer A+250 mM imidazole. For receptors, the elutate was dialyzed against TBS and for PP2Cs, fusion proteins were desalted by passage over a Sephadex G50 column.
The purified receptors and phosphatases were then used in receptor assays where receptor activation is indicated by inhibition of phosphatase activity, as inferred from initial reaction velocities for PP2C-mediated hydrolysis of the synthetic phosphatase substrate pNPP in reactions containing 600 nM PP2C and either 0, 600, 1200, 2400 or 4800 nM receptor. The receptor assay buffer consisted of 33 mM Tris-OAc, pH 7.9, 66 mM KOAc, 0.1% BSA, 25 mM Mn(OAc)2, 0.1%13-ME and 50 mM pNPP. Immediately after mixing proteins and substrates, reactions were monitored for hydrolysis of pNPP at A405 at ˜2 minutes intervals using a Wallac plate reader. […]
For the molecule B1, the “basal receptor activity (inhibition of HAB1 phosphatase activity in the absence of ABA)” value is “highly activated in the absence of ABA”.

B2: the “basal receptor activity (inhibition of HAB1 phosphatase activity in the absence of ABA)” value was “are not full CA receptors”.

Consider B3, for which the “basal receptor activity (inhibition of HAB1 phosphatase activity in the absence of ABA)” value was “dramatically increased basal PYR1 activity”.

For the molecule B4, the “basal receptor activity (inhibition of HAB1 phosphatase activity in the absence of ABA)” value is given as “dramatically increased basal PYR1 activity”.

On to B5, for which the “basal receptor activity (inhibition of HAB1 phosphatase activity in the absence of ABA)” value is reported as “increase basal activity of receptors”.

Consider B6, for which the “basal receptor activity (inhibition of HAB1 phosphatase activity in the absence of ABA)” value was “increase basal activity of receptors”.

Regarding B7, the “basal receptor activity (inhibition of HAB1 phosphatase activity in the absence of ABA)” value is on record as “increase basal activity of receptors”.

For B8, the “basal receptor activity (inhibition of HAB1 phosphatase activity in the absence of ABA)” value was “increase basal activity of receptors”.

As to B9, the “basal receptor activity (inhibition of HAB1 phosphatase activity in the absence of ABA)” value is reported as “increase basal activity of receptors”.

For the molecule B10, the “basal receptor activity (inhibition of HAB1 phosphatase activity in the absence of ABA)” value was “are not full CA receptors”.

As for B11, the “basal receptor activity (inhibition of HAB1 phosphatase activity in the absence of ABA)” value was “highly activated in the absence of ABA”.
